This is an account of results in patent US20240279281A1, “Peptide Inhibitors of Interleukin-23 Receptor” (Janssen Pharmaceutica NV, priority 2023, published 2024).

Starred links: 1 amine or outer side, 2 acyl side, 3 side chain; linkers in the order of their positions; H or OH if unused. Positions of bridges follow the written chain, without caps; N, C: chain ends. Non-standard residues stand in square brackets, D forms with d. No end group written: not given here. X1 = 3‑(7-(3-acetamidophenyl)-1H-indol-3-yl)‑2‑aminopropanoic acid, CC(=O)Nc1cccc(-c2cccc3c(CC(N[*:1])C(=O)[*:2])c[nH]c23)c1; X3 = 4‑(2-(4-(2-amino-2-carboxyethyl)phenoxy)ethyl)‑4‑methylmorpholin‑4‑ium, C[N+]1(CCOc2ccc(CC(N[*:1])C(=O)[*:2])cc2)CCOCC1; Trp(7-Me) = Cc1cccc2c(C[C@H](N)C(=O)O)c[nH]c12; d(hLys(Me3)) = C[N+](C)(C)CCCCC[C@@H](N)C(=O)O; 3Pal = N[C@@H](Cc1cccnc1)C(=O)O; Lipidated = not defined here; Pen = CC(C)(S)[C@H](N)C(=O)O; lipid = not defined here; Thp = NC1(C(=O)O)CCOCC1; Sar = CNCC(=O)O Where only a bound is given, the exact number is not on record here.

First the molecules themselves.
T1: interleukin-23 receptor (IL-23R), Q5VWK5
T1 chain: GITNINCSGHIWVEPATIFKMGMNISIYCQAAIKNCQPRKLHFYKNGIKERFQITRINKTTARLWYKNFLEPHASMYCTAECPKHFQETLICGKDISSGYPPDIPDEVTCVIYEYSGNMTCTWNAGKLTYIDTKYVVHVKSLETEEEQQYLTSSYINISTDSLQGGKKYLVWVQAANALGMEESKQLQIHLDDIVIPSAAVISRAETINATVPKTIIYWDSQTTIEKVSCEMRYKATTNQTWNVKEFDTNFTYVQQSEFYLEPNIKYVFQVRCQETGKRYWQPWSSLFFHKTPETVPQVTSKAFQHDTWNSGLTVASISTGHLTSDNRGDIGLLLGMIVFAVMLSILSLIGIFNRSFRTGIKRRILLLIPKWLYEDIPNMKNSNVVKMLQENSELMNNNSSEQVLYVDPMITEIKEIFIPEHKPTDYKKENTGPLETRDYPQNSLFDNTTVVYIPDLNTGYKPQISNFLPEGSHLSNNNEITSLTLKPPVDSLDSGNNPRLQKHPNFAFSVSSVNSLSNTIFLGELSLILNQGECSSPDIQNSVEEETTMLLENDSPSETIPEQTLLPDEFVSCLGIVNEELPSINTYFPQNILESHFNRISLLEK

B1: SEQ ID NO: 153 (peptide)
peptide: [Pen]NT[X1]K(Ac)[Pen][2‑amino‑3‑(4-(2-aminoethoxy)phenyl)propanoic acid][2‑amino‑3‑(6-hydroxynaphthalen-2-yl)propanoic acid][Thp]KN[3Pal][Sar]
modifications: disulfide 1-6 (inferred); ends not checked; also: K10: lipidated lysine, lipid not given here
B2: SEQ ID NO: 184 (peptide)
peptide: [d(hLys(Me3))][Pen]NT[Trp(7-Me)]K(Ac)[Pen][2‑amino‑3‑(4-(2-aminoethoxy)phenyl)propanoic acid][2‑amino‑3‑(6-hydroxynaphthalen-2-yl)propanoic acid][Thp]K(Lipidated)N[3Pal][Sar]
modifications: disulfide 2-7 (inferred); ends not checked; also: K11 lipidated lysine, lipid not given here
B3: SEQ ID NO: 148 (peptide)
peptide: R[Pen]ET[Trp(7-Me)]K(Ac)[Pen][2‑amino‑3‑(4-(2-aminoethoxy)phenyl)propanoic acid][2‑amino‑3‑(6-hydroxynaphthalen-2-yl)propanoic acid][Thp]EN[3Pal][Sar]K
modifications: disulfide 2-7 (inferred); ends not checked; also: Lys15: lipidated lysine, lipid not given here
B4: SEQ ID NO: 170 (peptide)
peptide: [Pen]ET[Trp(7-Me)]K(Ac)[Pen][2‑amino‑3‑(4-(2-aminoethoxy)phenyl)propanoic acid][2‑amino‑3‑(6-hydroxynaphthalen-2-yl)propanoic acid][Thp]K(Ac)N[3Pal][Sar]K(lipid)
modifications: disulfide 1-6 (inferred); ends not checked; also: K14 lipidated, lipid not given here
B5: SEQ ID NO: 150 (peptide)
peptide: R[Pen]KT[X1]K(Ac)[Pen][2‑amino‑3‑(4-(2-aminoethoxy)phenyl)propanoic acid][2‑amino‑3‑(6-hydroxynaphthalen-2-yl)propanoic acid][Thp]EN[3Pal][Sar]
modifications: disulfide 2-7 (inferred); ends not checked; also: Lys3: lipidated lysine, lipid not given here
B6: SEQ ID NO: 181 (peptide)
peptide: [d(hLys(Me3))][Pen]NT[Trp(7-Me)]K(Ac)[Pen][2‑amino‑3‑(4-(2-aminoethoxy)phenyl)propanoic acid][2‑amino‑3‑(6-hydroxynaphthalen-2-yl)propanoic acid][Thp]K(Ac)N[3Pal][Sar]K(lipid)
modifications: disulfide 2-7 (inferred); ends not checked; also: K15 lipidated lysine, lipid not given here
B7: SEQ ID NO: 166 (peptide)
peptide: [(R)‑3‑carboxy‑2‑(4-(((R)-5-carboxy-5-hydrazineylpentyl)amino)-4-oxobutanamido)‑N,N,N‑trimethylpropan‑1‑aminium][Pen]NT[Trp(7-Me)]K(Ac)[Pen][2‑amino‑3‑(4-(2-aminoethoxy)phenyl)propanoic acid][2‑amino‑3‑(6-hydroxynaphthalen-2-yl)propanoic acid][Thp]EN[3Pal][Sar]K(lipid)
modifications: disulfide 2-7 (inferred); ends not checked; also: K15: lipidated lysine, lipid not given here
B8: SEQ ID NO: 165 (peptide)
peptide: [Pen]NT[Trp(7-Me)]K(Ac)[Pen][2‑amino‑3‑(4-(2-aminoethoxy)phenyl)propanoic acid][2‑amino‑3‑(6-hydroxynaphthalen-2-yl)propanoic acid][Thp]K(Ac)N[3Pal][Sar]K(lipid)
modifications: disulfide 1-6 (inferred); ends not checked; also: K14: lipidated lysine, lipid not given here
B9: SEQ ID NO: 182 (peptide)
peptide: [Pen]NT[Trp(7-Me)]K(Ac)[Pen][2‑amino‑3‑(4-(2-aminoethoxy)phenyl)propanoic acid][2‑amino‑3‑(6-hydroxynaphthalen-2-yl)propanoic acid][Thp]K(Ac)N[3Pal][Sar]K(lipid)
modifications: disulfide 1-6 (inferred); ends not checked; also: K14 lipidated lysine, lipid not given here
B10: SEQ ID NO: 156 (peptide)
peptide: R[Pen]NT[X1]K(Ac)[Pen][2‑amino‑3‑(4-(2-aminoethoxy)phenyl)propanoic acid][2‑amino‑3‑(6-hydroxynaphthalen-2-yl)propanoic acid][Thp]EN[3Pal][Sar]K
modifications: disulfide 2-7 (inferred); ends not checked; also: K15: lipidated lysine, lipid not given here
B11: SEQ ID NO: 164 (peptide)
peptide: K(lipid)[Pen]NT[Trp(7-Me)]K(Ac)[Pen][2‑amino‑3‑(4-(2-aminoethoxy)phenyl)propanoic acid][2‑amino‑3‑(6-hydroxynaphthalen-2-yl)propanoic acid][Thp]K(Ac)N[3Pal][Sar]
modifications: disulfide 2-7 (inferred); ends not checked; also: K1: lipidated lysine, lipid not given here
B12: SEQ ID NO: 169 (peptide)
peptide: [Pen]ET[Trp(7-Me)]K(Ac)[Pen][2‑amino‑3‑(4-(2-aminoethoxy)phenyl)propanoic acid][2‑amino‑3‑(6-hydroxynaphthalen-2-yl)propanoic acid][Thp]K(Ac)N[3Pal][Sar]K(lipid)
modifications: disulfide 1-6 (inferred); ends not checked; also: K14 lipidated, lipid not given here

This assay deals with T1, interleukin-23 receptor (IL-23R), Q5VWK5. The assay can be described thus: cell-based or functional assay.
B1 yielded a PBMC pSTAT3 IC50 of less than 0.1 nM.

Turning to B2, the PBMC pSTAT3 IC50 was less than 1 nM.

In the case of B3, the PBMC pSTAT3 IC50 is less than 0.1 nM.

The molecule B4 displayed a PBMC pSTAT3 IC50 of less than 1 nM.

As to B5, the PBMC pSTAT3 IC50 was less than 1 nM.

B6 displayed a PBMC pSTAT3 IC50 of less than 1 nM.

B7: the PBMC pSTAT3 IC50 is less than 1 nM.

In turn, R[Pen]NT[X1]K(Ac)[Pen][2‑amino‑3‑(4-(2-aminoethoxy)phenyl)propanoic acid][2‑amino‑3‑(6-hydroxynaphthalen-2-yl)propanoic acid][Thp]EN[3Pal][Sar] (disulfide 2-7 (inferred); ends not checked) [SEQ ID NO: 151] displayed a PBMC pSTAT3 IC50 of less than 1 nM.

Consider B8, for which the PBMC pSTAT3 IC50 is greater than 1 nM.

As to B9, the PBMC pSTAT3 IC50 was less than 1 nM.

As to B10, the PBMC pSTAT3 IC50 is less than 1 nM.

In turn, R[Pen]NT[X1]K(Ac)[Pen][X3][2‑amino‑3‑(6-hydroxynaphthalen-2-yl)propanoic acid][Thp]EN[3Pal][Sar] (disulfide 2-7 (inferred); ends not checked) [SEQ ID NO: 161] came in with a PBMC pSTAT3 IC50 of less than 10 pM.

Regarding B11, the PBMC pSTAT3 IC50 was less than 1 nM.

B12 displayed a PBMC pSTAT3 IC50 of less than 1 nM.
